Measurements reported in patent US20070154954A1, “Fluorescence polarization assay” (TRANSTECH PHARMA, INC., priority 2004, published 2007).
Read-outs that look alike come from different tables or passages of the source.

How the values were obtained:
recombinant human sRAGE [1] = target: recombinant human sRAGE (Homo sapiens, UniProt Q15109); experiment: Fluorescence polarization competition assay: displacement of fluorescent amyloid beta (1-40) from sRAGE; conditions: read-out: EC50 for competing with fluoresceinated amyloid beta (1-40) for binding to sRAGE, unlabeled ligand, sRAGE 40 nM, fluorescent amyloid beta (1-40) 50 nM, 37° C. 1 hour, FIG. 4, mean of four measurements
Protocol: (§1) Once dissolved, the peptide is diluted with phosphate-buffered saline (calcium-free) to a concentration of 1 mg/ml and allowed to incubate at 37° C. for 24-48 hours.
The complex was incubated at 37° C. for 1 hour and then the milli-polarization (mP) value was read using an Envision plate reader (Perkin Ekmer). In some cases, depending on the purity of the human sRAGE, 0.1% bovine serum albumin (BSA) or 0.05% of the detergent TWEEN 20 may be added to the phospahte buffered saline to reduce background binding of the sRAGE to the assay well.

recombinant human sRAGE [2] = target: T1, recombinant human sRAGE (human, UniProt Q15109 23-339); experiment: fluorescence polarization, displacement of fluorescent amyloid beta (1-40) from sRAGE
T1 construct: also called soluble RAGE
Protocol: as §1
The complex was incubated at 37° C. for 1 hour and then the milli-polarization (mP) value was read using an Envision plate reader (Perkin Ekmer).

Chain of recombinant human sRAGE (Homo sapiens, UniProt Q15109) (Q15109 23-339): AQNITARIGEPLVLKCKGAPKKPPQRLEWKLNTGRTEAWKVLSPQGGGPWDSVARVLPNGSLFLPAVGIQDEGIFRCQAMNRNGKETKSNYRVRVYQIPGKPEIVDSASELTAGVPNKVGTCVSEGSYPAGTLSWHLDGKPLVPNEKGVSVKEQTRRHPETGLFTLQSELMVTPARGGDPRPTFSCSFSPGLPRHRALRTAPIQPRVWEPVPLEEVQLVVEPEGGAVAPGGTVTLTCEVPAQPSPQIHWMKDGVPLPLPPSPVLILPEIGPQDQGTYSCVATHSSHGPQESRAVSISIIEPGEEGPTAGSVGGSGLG
T1 sequence (Q15109 23-339 limits assumed): as the sequence (Q15109 23-339) above

Row | EC50 (recombinant human sRAGE [2]) [nM] | Molecule | EC50 (recombinant human sRAGE [1]) [nM] | EC50 (recombinant human sRAGE [1]; listed as S100b) [nM]
1 |  | s100b: unlabeled S100b, calgranulin-like RAGE ligand | ~43 | 43
2 | 43 | unlabeled S100b (ligand) MSELEKAMVALIDVFHQYSGREGDKHKLKKSELKELINNELSHFLEEIKEQEVVDKVMETLDNDGDGECDFQEFMAFVAMVTTACHEFFEHE |  | 
